Experimental data published in patent US20230416330A1, “Optimized GIP Peptide Analogues” (Antag Therapeutics ApS, priority 2019, published 2023).
Starred links: 1 amine or outer side, 2 acyl side, 3 side chain; linkers in the order of their positions; H or OH if unused. Non-standard residues stand in square brackets, D forms with d. Groups on a side chain read outwards from the residue. No end group written: not given here. *: point of attachment. C16 diacid = O=C(O)CCCCCCCCCCCCCCC(=O)*; γGlu = O=C(O)[C@H](CCC(=O)[*:2])N[*:1]; Aib = CC(C)(N)C(=O)O

T1: human GIP receptor (human, UniProt P48546 22-466)
T1 sequence (looked up): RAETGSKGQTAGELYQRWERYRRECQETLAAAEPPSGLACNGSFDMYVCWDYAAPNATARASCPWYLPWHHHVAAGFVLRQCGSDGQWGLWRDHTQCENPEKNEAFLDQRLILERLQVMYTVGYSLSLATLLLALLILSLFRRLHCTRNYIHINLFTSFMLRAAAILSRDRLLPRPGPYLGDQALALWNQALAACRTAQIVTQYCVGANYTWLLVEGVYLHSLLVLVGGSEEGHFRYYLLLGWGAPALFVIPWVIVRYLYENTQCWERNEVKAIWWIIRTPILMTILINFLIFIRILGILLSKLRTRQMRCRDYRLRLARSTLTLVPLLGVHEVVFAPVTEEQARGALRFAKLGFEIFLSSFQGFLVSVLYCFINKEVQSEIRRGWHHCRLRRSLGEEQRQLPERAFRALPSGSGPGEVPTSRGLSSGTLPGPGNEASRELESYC

B1: AT720 (peptide)
peptide: EGTFISEYSI[Aib]LEKIK([Aib-C16 diacid])QQEFVEWLLAQKPSSGAPPPS-OH
modifications: N-terminus assumed
SMILES: CC[C@H](C)[C@H](NC(=O)[C@H](CCCCN)NC(=O)[C@H](CCC(=O)O)NC(=O)[C@H](CC(C)C)NC(=O)C(C)(C)NC(=O)[C@@H](NC(=O)[C@H](CO)NC(=O)[C@H](Cc1ccc(O)cc1)NC(=O)[C@H](CCC(=O)O)NC(=O)[C@H](CO)NC(=O)[C@@H](NC(=O)[C@H](Cc1ccccc1)NC(=O)[C@@H](NC(=O)CNC(=O)[C@@H](N)CCC(=O)O)[C@@H](C)O)[C@@H](C)CC)[C@@H](C)CC)C(=O)N[C@@H](CCCCNC(=O)C(C)(C)NC(=O)CCCCCCCCCCCCCCC(=O)O)C(=O)N[C@@H](CCC(N)=O)C(=O)N[C@@H](CCC(N)=O)C(=O)N[C@@H](CCC(=O)O)C(=O)N[C@@H](Cc1ccccc1)C(=O)N[C@H](C(=O)N[C@@H](CCC(=O)O)C(=O)N[C@@H](Cc1c[nH]c2ccccc12)C(=O)N[C@@H](CC(C)C)C(=O)N[C@@H](CC(C)C)C(=O)N[C@@H](C)C(=O)N[C@@H](CCC(N)=O)C(=O)N[C@@H](CCCCN)C(=O)N1CCC[C@H]1C(=O)N[C@@H](CO)C(=O)N[C@@H](CO)C(=O)NCC(=O)N[C@@H](C)C(=O)N1CCC[C@H]1C(=O)N1CCC[C@H]1C(=O)N1CCC[C@H]1C(=O)N[C@@H](CO)C(=O)O)C(C)C
B2: AT740 (peptide)
peptide: EGTFISDYSIK(C16 diacid)MDKIHQQDFVEWLLAQKPSSGAPPPS-OH
modifications: N-terminus assumed
SMILES: CC[C@H](C)[C@H](NC(=O)[C@H](CCCCN)NC(=O)[C@H](CC(=O)O)NC(=O)[C@H](CCSC)NC(=O)[C@H](CCCCNC(=O)CCCCCCCCCCCCCCC(=O)O)NC(=O)[C@@H](NC(=O)[C@H](CO)NC(=O)[C@H](Cc1ccc(O)cc1)NC(=O)[C@H](CC(=O)O)NC(=O)[C@H](CO)NC(=O)[C@@H](NC(=O)[C@H](Cc1ccccc1)NC(=O)[C@@H](NC(=O)CNC(=O)[C@@H](N)CCC(=O)O)[C@@H](C)O)[C@@H](C)CC)[C@@H](C)CC)C(=O)N[C@@H](Cc1c[nH]cn1)C(=O)N[C@@H](CCC(N)=O)C(=O)N[C@@H](CCC(N)=O)C(=O)N[C@@H](CC(=O)O)C(=O)N[C@@H](Cc1ccccc1)C(=O)N[C@H](C(=O)N[C@@H](CCC(=O)O)C(=O)N[C@@H](Cc1c[nH]c2ccccc12)C(=O)N[C@@H](CC(C)C)C(=O)N[C@@H](CC(C)C)C(=O)N[C@@H](C)C(=O)N[C@@H](CCC(N)=O)C(=O)N[C@@H](CCCCN)C(=O)N1CCC[C@H]1C(=O)N[C@@H](CO)C(=O)N[C@@H](CO)C(=O)NCC(=O)N[C@@H](C)C(=O)N1CCC[C@H]1C(=O)N1CCC[C@H]1C(=O)N1CCC[C@H]1C(=O)N[C@@H](CO)C(=O)O)C(C)C
B3: AT739 (peptide)
peptide: EGTFISDYSK(C16 diacid)AMDKIHQQDFVEWLLAQKPSSGAPPPS-OH
modifications: N-terminus assumed
SMILES: CC[C@H](C)[C@H](NC(=O)[C@H](CCCCN)NC(=O)[C@H](CC(=O)O)NC(=O)[C@H](CCSC)NC(=O)[C@H](C)NC(=O)[C@H](CCCCNC(=O)CCCCCCCCCCCCCCC(=O)O)NC(=O)[C@H](CO)NC(=O)[C@H](Cc1ccc(O)cc1)NC(=O)[C@H](CC(=O)O)NC(=O)[C@H](CO)NC(=O)[C@@H](NC(=O)[C@H](Cc1ccccc1)NC(=O)[C@@H](NC(=O)CNC(=O)[C@@H](N)CCC(=O)O)[C@@H](C)O)[C@@H](C)CC)C(=O)N[C@@H](Cc1c[nH]cn1)C(=O)N[C@@H](CCC(N)=O)C(=O)N[C@@H](CCC(N)=O)C(=O)N[C@@H](CC(=O)O)C(=O)N[C@@H](Cc1ccccc1)C(=O)N[C@H](C(=O)N[C@@H](CCC(=O)O)C(=O)N[C@@H](Cc1c[nH]c2ccccc12)C(=O)N[C@@H](CC(C)C)C(=O)N[C@@H](CC(C)C)C(=O)N[C@@H](C)C(=O)N[C@@H](CCC(N)=O)C(=O)N[C@@H](CCCCN)C(=O)N1CCC[C@H]1C(=O)N[C@@H](CO)C(=O)N[C@@H](CO)C(=O)NCC(=O)N[C@@H](C)C(=O)N1CCC[C@H]1C(=O)N1CCC[C@H]1C(=O)N1CCC[C@H]1C(=O)N[C@@H](CO)C(=O)O)C(C)C
B4: AT719 (peptide)
peptide: EGTFISDYSIAMDKIK(C16 diacid)QQDFVNWLLAQK-OH
modifications: N-terminus assumed
SMILES: CC[C@H](C)[C@H](NC(=O)[C@H](CO)NC(=O)[C@H](Cc1ccc(O)cc1)NC(=O)[C@H](CC(=O)O)NC(=O)[C@H](CO)NC(=O)[C@@H](NC(=O)[C@H](Cc1ccccc1)NC(=O)[C@@H](NC(=O)CNC(=O)[C@@H](N)CCC(=O)O)[C@@H](C)O)[C@@H](C)CC)C(=O)N[C@@H](C)C(=O)N[C@@H](CCSC)C(=O)N[C@@H](CC(=O)O)C(=O)N[C@@H](CCCCN)C(=O)N[C@H](C(=O)N[C@@H](CCCCNC(=O)CCCCCCCCCCCCCCC(=O)O)C(=O)N[C@@H](CCC(N)=O)C(=O)N[C@@H](CCC(N)=O)C(=O)N[C@@H](CC(=O)O)C(=O)N[C@@H](Cc1ccccc1)C(=O)N[C@H](C(=O)N[C@@H](CC(N)=O)C(=O)N[C@@H](Cc1c[nH]c2ccccc12)C(=O)N[C@@H](CC(C)C)C(=O)N[C@@H](CC(C)C)C(=O)N[C@@H](C)C(=O)N[C@@H](CCC(N)=O)C(=O)N[C@@H](CCCCN)C(=O)O)C(C)C)[C@@H](C)CC
B5: AT721 (peptide)
peptide: EGTFISEYSI[Aib]LEKIK([γGlu-C16 diacid])QQEFVEWLLAQKPSSGAPPPS-OH
modifications: N-terminus assumed
SMILES: CC[C@H](C)[C@H](NC(=O)[C@H](CCCCN)NC(=O)[C@H](CCC(=O)O)NC(=O)[C@H](CC(C)C)NC(=O)C(C)(C)NC(=O)[C@@H](NC(=O)[C@H](CO)NC(=O)[C@H](Cc1ccc(O)cc1)NC(=O)[C@H](CCC(=O)O)NC(=O)[C@H](CO)NC(=O)[C@@H](NC(=O)[C@H](Cc1ccccc1)NC(=O)[C@@H](NC(=O)CNC(=O)[C@@H](N)CCC(=O)O)[C@@H](C)O)[C@@H](C)CC)[C@@H](C)CC)C(=O)N[C@@H](CCCCNC(=O)CC[C@H](NC(=O)CCCCCCCCCCCCCCC(=O)O)C(=O)O)C(=O)N[C@@H](CCC(N)=O)C(=O)N[C@@H](CCC(N)=O)C(=O)N[C@@H](CCC(=O)O)C(=O)N[C@@H](Cc1ccccc1)C(=O)N[C@H](C(=O)N[C@@H](CCC(=O)O)C(=O)N[C@@H](Cc1c[nH]c2ccccc12)C(=O)N[C@@H](CC(C)C)C(=O)N[C@@H](CC(C)C)C(=O)N[C@@H](C)C(=O)N[C@@H](CCC(N)=O)C(=O)N[C@@H](CCCCN)C(=O)N1CCC[C@H]1C(=O)N[C@@H](CO)C(=O)N[C@@H](CO)C(=O)NCC(=O)N[C@@H](C)C(=O)N1CCC[C@H]1C(=O)N1CCC[C@H]1C(=O)N1CCC[C@H]1C(=O)N[C@@H](CO)C(=O)O)C(C)C
B6: AT722 (peptide)
peptide: EGTFISEYSI[Aib]LEKIK([Ser-Gly-Gly-Gly-Gly-C16 diacid])QQEFVEWLLAQKPSSGAPPPS-OH
modifications: N-terminus assumed
SMILES: CC[C@H](C)[C@H](NC(=O)[C@H](CCCCN)NC(=O)[C@H](CCC(=O)O)NC(=O)[C@H](CC(C)C)NC(=O)C(C)(C)NC(=O)[C@@H](NC(=O)[C@H](CO)NC(=O)[C@H](Cc1ccc(O)cc1)NC(=O)[C@H](CCC(=O)O)NC(=O)[C@H](CO)NC(=O)[C@@H](NC(=O)[C@H](Cc1ccccc1)NC(=O)[C@@H](NC(=O)CNC(=O)[C@@H](N)CCC(=O)O)[C@@H](C)O)[C@@H](C)CC)[C@@H](C)CC)C(=O)N[C@@H](CCCCNC(=O)[C@H](CO)NC(=O)CNC(=O)CNC(=O)CNC(=O)CNC(=O)CCCCCCCCCCCCCCC(=O)O)C(=O)N[C@@H](CCC(N)=O)C(=O)N[C@@H](CCC(N)=O)C(=O)N[C@@H](CCC(=O)O)C(=O)N[C@@H](Cc1ccccc1)C(=O)N[C@H](C(=O)N[C@@H](CCC(=O)O)C(=O)N[C@@H](Cc1c[nH]c2ccccc12)C(=O)N[C@@H](CC(C)C)C(=O)N[C@@H](CC(C)C)C(=O)N[C@@H](C)C(=O)N[C@@H](CCC(N)=O)C(=O)N[C@@H](CCCCN)C(=O)N1CCC[C@H]1C(=O)N[C@@H](CO)C(=O)N[C@@H](CO)C(=O)NCC(=O)N[C@@H](C)C(=O)N1CCC[C@H]1C(=O)N1CCC[C@H]1C(=O)N1CCC[C@H]1C(=O)N[C@@H](CO)C(=O)O)C(C)C

Biological target: T1, human GIP receptor
Experiment: cell-based or functional assay

Binder	nM (Kb, Gaddum assay, cAMP)	pKb (Gaddum assay, cAMP)
EGTFISEYSI[Aib]LEKIK([Lys-Ala-Ala-Ala-Glu-Lys-Ala-Ala-Ala-Glu-Lys-Ala-Ala-Ala-Glu-C16 diacid])QQEFVEWLLAQKPSSGAPPPS-OH (not fully specified) [AT724]	0.31 nM	9.5
EGTFISEYSI[Aib]LEKIK([Ala-Glu-Leu-Ala-C16 diacid])QQEFVEWLLAQKPSSGAPPPS-OH [AT725]	0.6 nM	9.2
B1	0.29 nM	9.5
B2	14 nM	7.9
B3	11 nM	7.9
B4	7.6 nM	8.1
B5	0.31 nM	9.5
B6	0.28 nM	9.6
